# B1: 5C9 IgG (human monoclonal autoantibody to the TSHR) (antibody, from another filing, V domains shown)
# VH: EVQLVESGGGLIQPGGSLRLSCAASGFTVSSNYMSWVRQAPGKGLEWVSVTYSGGSTSYADSVKGRFTISRDNSKNTLYLQMNSLRAEDTAVYYCARGGRYCSSISCYARSGCDYWGQGTLVTVSS
# VL: AIQMTQSPSSLSASVGDRVTITCRASQSISNYLNWYQQKPGKAPKLLIYAASSLQSGVPSRFSGSGSGTDFTLTISSLQPEDFATYYCQQSYSSPSTTFGQGTKLEIK
# Columns and labels:
# [1] = molecular target: human TSHR with activating mutation A623I, on CHO cells (human) (UniProt P16473); assay: cell-based or functional assay
# [2] = molecular target: human TSHR, wild type, expressed on CHO cells (human) (UniProt P16473); assay: cell-based or functional assay
binder,measurement,setting,value
B1,basal cyclic AMP (buffer only 36.89); 5C9 IgG 0.001 µg/mL,[1],26.5 pmol/mL
same,basal cyclic AMP (buffer only 36.89); 5C9 IgG 0.01 µg/mL,[1],27 pmol/mL
same,basal cyclic AMP (buffer only 36.89); 5C9 IgG 0.1 µg/mL,[1],19.8 pmol/mL
same,basal cyclic AMP (buffer only 36.89); 5C9 IgG 1 µg/mL,[1],16.4 pmol/mL
same,% inhibition of basal cyclic AMP production; Exp 2; 5C9 IgG 0.001 µg/mL,[2],10.8%
same,% inhibition of basal cyclic AMP production; Exp 2; 5C9 IgG 0.01 µg/mL,[2],37.2%
same,% inhibition of basal cyclic AMP production; Exp 2; 5C9 IgG 0.1 µg/mL,[2],45.7%
same,% inhibition of basal cyclic AMP production; Exp 2; 5C9 IgG 1 µg/mL,[2],71%
same,% inhibition of basal cyclic AMP production; Exp 2; 5C9 IgG 10 µg/mL,[2],74.6%
same,% inhibition of basal cyclic AMP production; Exp 2; 5C9 IgG 100 µg/mL,[2],54.9%
same,% inhibition of basal cyclic AMP production; Exp 3; 5C9 IgG 0.1 µg/mL,[2],1%
same,% inhibition of basal cyclic AMP production; Exp 3; 5C9 IgG 1 µg/mL,[2],61%
same,% inhibition of basal cyclic AMP production; Exp 3; 5C9 IgG 10 µg/mL,[2],59%
same,% inhibition of basal cyclic AMP production; Exp 3; 5C9 IgG 100 µg/mL,[2],56%
same,cyclic AMP; Exp 1; 5C9 1 µg/mL + TSH 3 ng/mL,[2],13.9 pmol/mL
same,cyclic AMP; Exp 1; 5C9 10 µg/mL + TSH 3 ng/mL,[2],3.7 pmol/mL
same,cyclic AMP; Exp 1; 5C9 10 µg/mL only,[2],0.45 pmol/mL
same,cyclic AMP; Exp 1; native human TSH 100 ng/mL + 5C9 IgG 0.001 µg/mL,[2],36 pmol/mL
same,cyclic AMP; Exp 1; native human TSH 100 ng/mL + 5C9 IgG 0.01 µg/mL,[2],18 pmol/mL
same,cyclic AMP; Exp 1; native human TSH 100 ng/mL + 5C9 IgG 0.1 µg/mL,[2],0.2 pmol/mL
same,cyclic AMP; Exp 1; native human TSH 100 ng/mL + 5C9 IgG 1.0 µg/mL,[2],0.14 pmol/mL
same,cyclic AMP; Exp 1; native human TSH 100 ng/mL + 5C9 IgG 10 µg/mL,[2],0.11 pmol/mL
same,cyclic AMP; Exp 1; native human TSH 100 ng/mL + 5C9 IgG 100 µg/mL,[2],0.16 pmol/mL
same,cyclic AMP; Exp 1; recombinant human TSH 100 ng/mL + 5C9 IgG 0.001 µg/mL,[2],13.6 pmol/mL
same,cyclic AMP; Exp 1; recombinant human TSH 100 ng/mL + 5C9 IgG 0.01 µg/mL,[2],8.13 pmol/mL
same,cyclic AMP; Exp 1; recombinant human TSH 100 ng/mL + 5C9 IgG 0.1 µg/mL,[2],0.12 pmol/mL
same,cyclic AMP; Exp 1; recombinant human TSH 100 ng/mL + 5C9 IgG 1.0 µg/mL,[2],0.1 pmol/mL
same,cyclic AMP; Exp 1; recombinant human TSH 100 ng/mL + 5C9 IgG 10 µg/mL,[2],0.12 pmol/mL
same,cyclic AMP; Exp 1; recombinant human TSH 100 ng/mL + 5C9 IgG 100 µg/mL,[2],0.19 pmol/mL
same,cyclic AMP; Exp 2; 5C9 1 µg/mL + TSH 3 ng/mL,[2],6.1 pmol/mL
same,cyclic AMP; Exp 2; 5C9 10 µg/mL + TSH 3 ng/mL,[2],3.1 pmol/mL
same,cyclic AMP; Exp 2; 5C9 10 µg/mL only,[2],0.4 pmol/mL
same,cyclic AMP; Exp 2; native human TSH 100 ng/mL + 5C9 IgG 0.001 µg/mL,[2],37.6 pmol/mL
same,cyclic AMP; Exp 2; native human TSH 100 ng/mL + 5C9 IgG 0.01 µg/mL,[2],34.4 pmol/mL
same,cyclic AMP; Exp 2; native human TSH 100 ng/mL + 5C9 IgG 0.1 µg/mL,[2],15.8 pmol/mL
same,cyclic AMP; Exp 2; native human TSH 100 ng/mL + 5C9 IgG 1.0 µg/mL,[2],0.13 pmol/mL
same,cyclic AMP; Exp 2; native human TSH 100 ng/mL + 5C9 IgG 10 µg/mL,[2],0.18 pmol/mL
same,cyclic AMP; Exp 2; native human TSH 100 ng/mL + 5C9 IgG 100 µg/mL,[2],0.21 pmol/mL
same,cyclic AMP; Exp 2; native porcine TSH 0.3 ng/mL + 5C9 IgG 0.001 µg/mL,[2],32.7 pmol/mL
same,cyclic AMP; Exp 2; native porcine TSH 0.3 ng/mL + 5C9 IgG 0.01 µg/mL,[2],28.2 pmol/mL
same,cyclic AMP; Exp 2; native porcine TSH 0.3 ng/mL + 5C9 IgG 0.1 µg/mL,[2],18 pmol/mL
same,cyclic AMP; Exp 2; native porcine TSH 0.3 ng/mL + 5C9 IgG 1.0 µg/mL,[2],2.14 pmol/mL
same,cyclic AMP; Exp 2; native porcine TSH 0.3 ng/mL + 5C9 IgG 10 µg/mL,[2],0.2 pmol/mL
same,cyclic AMP; Exp 2; native porcine TSH 0.3 ng/mL + 5C9 IgG 100 µg/mL,[2],0.18 pmol/mL
same,cyclic AMP; Exp 2; recombinant human TSH 100 ng/mL + 5C9 IgG 0.001 µg/mL,[2],20 pmol/mL
same,cyclic AMP; Exp 2; recombinant human TSH 100 ng/mL + 5C9 IgG 0.01 µg/mL,[2],20.6 pmol/mL
same,cyclic AMP; Exp 2; recombinant human TSH 100 ng/mL + 5C9 IgG 0.1 µg/mL,[2],7.39 pmol/mL
same,cyclic AMP; Exp 2; recombinant human TSH 100 ng/mL + 5C9 IgG 1.0 µg/mL,[2],0.07 pmol/mL
same,cyclic AMP; Exp 2; recombinant human TSH 100 ng/mL + 5C9 IgG 10 µg/mL,[2],0.07 pmol/mL
same,cyclic AMP; Exp 2; recombinant human TSH 100 ng/mL + 5C9 IgG 100 µg/mL,[2],0.11 pmol/mL
same,cyclic AMP; Exp 3; 5C9 0.01 µg/mL + TSH 3 ng/mL,[2],33.9 pmol/mL
same,cyclic AMP; Exp 3; 5C9 0.1 µg/mL + TSH 3 ng/mL,[2],18.7 pmol/mL
same,cyclic AMP; Exp 3; 5C9 1 µg/mL + TSH 3 ng/mL,[2],5.4 pmol/mL
same,cyclic AMP; Exp 3; 5C9 10 µg/mL + TSH 3 ng/mL,[2],1.9 pmol/mL
